The nanobody polyreactivity screen of Harvey et al. (2022)

Test: yeast display, Sf9 membrane polyspecificity reagent, FACS + sequencing; frameworks hold sequencing errors
In short: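 Nanobodies from a synthetic yeast display library (Saccharomyces cerevisiae BJ5465), induced 36–48 hours with galactose, were stained 1 hour at 4 °C with 10% biotinylated, detergent-solubilized Sf9 membrane reagent, enriched on streptavidin microbeads, then FACS-sorted. Anti-HA (expression) and streptavidin (reagent binding) fluorescence set low and high (top ~1%) gates. Polyreactivity labels come from the gate of origin. Genes were colony-PCR amplified, MiSeq 2 × 250 sequenced and filtered by CDR length.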

QVQLVESGGGLVQAGGSLRLSSAASGSIFPSYAMGWYIQAPGKETELVAAITTSGGNTFYADSVKGRFTISRDNAKNTVYLQMNSLKPEDTAVYYCAADYSPYTVEYDYWGQGTQVTVSS
polyreactivity (PSR sort gate): low polyreactivity

QVQLVESGGGLVQAGGSLRLSCAASGFTIYLYTMGWYRQAPGKERELVAAITSSGTRTYYADSVKGRFTISRDNAKNTVYLQMNSLKPEDTAVYYCNAARYGRHLSTYDYWGQGTQVTVSS
polyreactivity (PSR sort gate): high polyreactivity

QVQLVESGGGLVQAGGSLRLSCAASGSTFVLNAMGWYRQAPGKERELVAAINLDSGNTNYADSVKGRFTISRDNAKYTVYLQMNSLKPEDTAVYYCNTDVKFGGTAYDYWGQGTQVTVSS
polyreactivity (PSR sort gate): low polyreactivity

QVQLVESGGGLVQAGGSLRLSCAASGRIFSLYAMGWYRQAPGKERELVADITYRGGDSTYYADSVKGRFTISRDNAKNTVYLKMNSLKPEDTAVYYCAAGQPLYQRRHSSRTYYYWGQGTQVTVSS
polyreactivity (PSR sort gate): high polyreactivity

QVQLVESGGGLVQAGGSLRLSCAASGFTFKKNAMGWYRQAPGKERELVAAIRSGTSTKYADSVKGRFTISRDNAKNTVYLQMNSLKPEDTAVYYCAAEEPEYLATWRNRRYDYWGQGTQVTVSS
polyreactivity (PSR sort gate): low polyreactivity

QVQLVESGGGLVQAGGSLRLSCAASGRIFDWYAMGWYRQAPGKERELVAAISTSGANTYYADSVKGRFTISRDNAKNTVYLQMNSLKPEDTAVYYCATDPYQPYEGDYWGQGSQVTVSS
polyreactivity (PSR sort gate): low polyreactivity

QVQLVESGGGLVQAGGSLRLSCAASGSIFTPNVMGWYRQAPGKERELVAAISQSGGSTFYADSVKGRFTISRDNAKNTVYLQMNSLKPEDTAVYYCAADDGYTYYYWGQGTQVTVSS
polyreactivity (PSR sort gate): low polyreactivity

QVQLVESGGGLVQAGGSLRLSCAASGNTLNYYTMGWYRQAPGKERELVAAISSSGGSTYYADSVKGRFTISRDNAKNTVYLQMNSLKPEDTAVYYCAVLFYNNFGYWGQGTQVTVSS
polyreactivity (PSR sort gate): low polyreactivity

QVQLVESGGGLVQAGGSLRLSCAASGSTLVIYAMGWYRQAPGKERELVAAINFSDGSTSYADSVKGRFTISRDNSKTTVYFQMNSLKPEDTAVYYWGQGTQVTVSS
polyreactivity (PSR sort gate): low polyreactivity

QVQLEESGGGLVQAGGSLRLSSAASGTISATYAMGWYRQAPGKERELVAAISRNGGSTYYADSVKGRFTISRDNAKNTVYLQMNSLKPEDTAVYYCATSSSKSMYWGQGTQVTVSS
polyreactivity (PSR sort gate): high polyreactivity

QVQLVESGGGLVQAGGSLRLSCAASGFIFTSYAMGWYRQAPGKERELVAAITDGGSTNYADSVKGRFTISRDNAKNTVYLQMNSLKPEDTAVFYCAADGFKTVLPEYDYWGQGTQVTVSS
polyreactivity (PSR sort gate): low polyreactivity

QVQLVESGGGLVQAGGSLRLSCSASGIIYKSYAMGWYRQAPGKERELVAAISGGGDTYYADSVKGRFTISRDNAKNTVYLQMNSLKPEDTAVYYCNTDGSQGTIIAIFVKYDYWGQGTQVTVSS
polyreactivity (PSR sort gate): low polyreactivity

QVQLVESGGGLVQAGGSLRLSCAASGNIFKYYTMRWYRQAPGKERELVAAITSGGRTNYADSVKGRFTISRDNAKNTVYLQMNSLKPEDTAVYYCAAYDVIYSQGFDYWGQGTQVTVSS
polyreactivity (PSR sort gate): low polyreactivity

QVQLVESCGGLVQAGGSLRLSCASSGRTIDSKAMGWYRQAPGKERELVAAISWSGGSTYYADSVKGRFTISRDNAKNTVYLQMNSLKPEDTAVYYCNRLGRHAPATRYGYWGQGTQVTVSS
polyreactivity (PSR sort gate): high polyreactivity

QVQRVESGGGLVQAGGSLRLSCAASGSIFRFYAMGWYRQARGKERELVAAITSGGSTNYADSVKGRFTISRDNAKNTVFLQMKSLKPEDTAVYYFNAGLFYKPQYGYWGQGTQVTVSS
polyreactivity (PSR sort gate): high polyreactivity

QVQLVESGGGLVQAGGSLRLSCAASGIIFNSNAMGWYRQAPGKERELVAGISRGSSTSYADSVKGRFTISRDNAKNPVYLQMNSLKPADNAVYFCNAEVYSPQQFTPPDRYYYWGQGTQVTVSS
polyreactivity (PSR sort gate): low polyreactivity

QVQLVESGGGLVQAGGSLRLSCAASGITFTNYAMGWYRQAPGKERELVAAISSRGGRTYYADSVKGRFTISRDNAKNTVYLQMNSLKPEDTAVYYCAASFFQVYGDDYWGQGTQVTVSS
polyreactivity (PSR sort gate): high polyreactivity

QVQLVESGGGLVQAGGSLRLSCAASGFTFWGYGMGWYRQAPGKERELVAAISGSGGSTYYADSVKGRFTISRDNAKNTVFLQMNSLKRKIPRSITALLFTVNGGGSRSHDYWAQGTQVTVSS
polyreactivity (PSR sort gate): low polyreactivity

QVQLQESGGGLVQAGGSLRLSCAASGYISLAQTIGWYRQAPGKEREFVASIALGSSTYYTDSVKGSFTISRDNAKTTVYLQMNSLKPEDTAVYYCAARVGASYAHDYWGQGTQVAVSS
polyreactivity (PSR sort gate): low polyreactivity

QVQLVESGGGLFQAGGILRLSCAASGYTFPDYAMGWYRQAPGKEREFVATISWSGTSTYYADSVKGRFTISRDNAKNTVYLQMNSLTTEDTAVYYCNKTPSSWPDLYSYNYWGQGTQVTVSS
polyreactivity (PSR sort gate): low polyreactivity

QVQLVESGGGLVQAGGSLRLSCAASGRIFQKNTMGWYRQAPGKERELVAAINWNGGRTYYADSVKGRFTISRDNAKNTVYLQMNSLKPEDTAVYYCAKDGYWDFDYWGQGTQVTVSS
polyreactivity (PSR sort gate): low polyreactivity

QVQLVESGGGLVQAGGSLRLSCAASGSIFVPNAMGWYRQAPGKERELVAAITSGGSTYYADSVKGRFTISRDNAKNTVYLQMNSLKPEDTAVYYCAAEYWLGLYTYDYWGQGTQVTVSS
polyreactivity (PSR sort gate): high polyreactivity

QVQLVESGGGLVQAGGSLRLSCAASGFTIISYTMGWYRQAPGKDRELVAAIRGGGRTYYADSVKGRFTISRDNAKNTVYLQMNSLKPEDTAVYYCAARLRYGGHYDYWGQGTQVTVSS
polyreactivity (PSR sort gate): high polyreactivity

QVQLVESGGGLVQAGGSLRLSCAASGLTFRAYTMGWYRQAPGKERELVAAISRSGGSTYYADSVKGRFTISRDNAKNTVYLQMNSLKPEDTAVYYCAAPGYQTVGMGYWGQGTQVTVSS
polyreactivity (PSR sort gate): high polyreactivity

QVQLVESGGGLVQAGGSLRISCAASGFISYYYAMGWYRQAPGKERELVAAITKSGGSTYYADSVKGRFTISRDNAKNTVYLQMNSLKPDDTAVYYCAADRSTRNSTSRLYGYWGQGTQVTVSS
polyreactivity (PSR sort gate): low polyreactivity

QVQLVESGGGVVQAGGSLRLSCAASGFTFWRYAMGWSRQAPGKDRELVAVITWSGTRTYYADSVKGRFTLSRDTAKITVYVQMNSLNPDAPAVYYCAAYITDVAGRAYDYWGQGTQVTVSS
polyreactivity (PSR sort gate): high polyreactivity

QVQHVESGGGLVQAGGSLRLSCAASGFIFVSYTMGWYRHAPGKEWELVATITVSDGSTYYADSVKGRFTISRDNAKNTVYLQMNSLKPEDTAVYYCNKDKVVVRYDYWGQGTQVTVSS
polyreactivity (PSR sort gate): low polyreactivity

QVQLEDSGRGLFQAGGSLRLSCAASGSIVALYTMGWYRQAPGKEREFVAGIRTGGSTIYADSVKGRFTISRDNAKNTVYLQMNSRKPEDTPVYYDDWGQGTQVTVSS
polyreactivity (PSR sort gate): low polyreactivity

QVQLVESGGGLVQAGGSLRLSCAASGRIFGSYAMGWYRQAPGKERELVASIRSRGGRTYYADSVKGRFTISRDNAKNTVYLQMNSLKPEDTAVYYCAADVGVYYYSFYYWGQGTQVTVSS
polyreactivity (PSR sort gate): high polyreactivity

QVQLVESGGGLVQAGGSLRLSSAASGITFKYYVMGWYRQAPGKEREFVAAISWGGGSTYYADSVKGRFTISRDNAKITVYLQMNSLKPEDTAVYYCATSHGLYTRWYDYWGQGTQVTVSS
polyreactivity (PSR sort gate): high polyreactivity

QVQLVESGGGLVQAGGSLRLSCAASGRIFNQYGMGWYSQARGKERELVAAIRSGDSTNYADSVKGRFTISRDNAKNTVYLQMNSLKPEDTAVDYCARDRPGDYAGYDYWGQGTQVTVSS
polyreactivity (PSR sort gate): low polyreactivity

QVQLVESGGGLVQAGGSLRLSCAASGRIFKKYAMGWYRQAPGKERELVATISSGGSTYYADSVKGRFTISRDNAKNTVYLQMNSLKPEDTAVYYCARREYVRRDYFVTTYDYWGQGTQVTVSS
polyreactivity (PSR sort gate): low polyreactivity

QVQLVDSGGGLVQAGGSLRLSCAASGITIPSYTMGWYRQGPGKERELVATIRNGGSTYYADSVKGRFTISRDNAKNTVYLQMNSLIPEDTAVYYCAAVPLWDYIFFYYLLYDYWGQGTQVTVSS
polyreactivity (PSR sort gate): low polyreactivity

QVQLVESGGGLVQAGGSLRLSCAASGSTFYDYAMGWYRQAPGKERELVASIDSGDSTNYADSVKGRFTISRDNAKNTVYLQMNSLKPEDTAVYYCAARVYSVADYYYWGQGTQVTVSS
polyreactivity (PSR sort gate): low polyreactivity

QVQLVESGGGLVQAGGSLRLSCAASGSTFRSYAMGWNRQAPGKERELVAAISGRGGNTYYADSVKGRFTISRDNAKNTVYLLMNSLKPEDTAVYYCARKTVYYGSDYWGQGTQVTVSS
polyreactivity (PSR sort gate): high polyreactivity

QVQLVESGGGLVQAGGSLRLSCAASGGTFDDYAMGWYRQAPGKERELVAAISSSGGSTYYADSVKGRITISRDNAKNTVYLEMNSLKPDDTAVYYCAVDAFWRHWYYPYESHHDYWGQGTQVTVSS
polyreactivity (PSR sort gate): low polyreactivity

QVQLVESGGGLVQAGGSLRLSCAASGSTFFFNAMGWYRQAPGKERELVASITDTSGRTYYADSVKGRFTISRDNAKNTVYLHMNSLKPEDTAVYYCDKDFDQGGREMDYWGQGTQVTVSS
polyreactivity (PSR sort gate): low polyreactivity

QVQLVESGGGLVQAGGSLRLSCAASGRIFIYNAMGWYRQAPGKERELVAAINRSGVSTHYADSVKGRFTISRDHAKNTVYLQMNSLKPEDTAVYYCARTVYGARSYDYWGQGTQVTVSS
polyreactivity (PSR sort gate): low polyreactivity

QVQLVESGGGLVQAGGSLRLSCAASGSIFVRNVMGLYRQAPGKERELVATIRYRGGSTYYADSVKGRFSISRDNAKNTVYLQMNSLKPEDTAVYYCNARYLWADEYYYWGQGTQVTVSS
polyreactivity (PSR sort gate): low polyreactivity

QVQLVESGGGLVQAGGSLRLSCAASGRTFYKNAMGWYRQAPGKEREFVASISVSGGRTYYADSVKGRFTISRDNAKNTVYLQMNSLKQEDTAVYYCNARASPLSQRDYWGQGTQVTVSS
polyreactivity (PSR sort gate): low polyreactivity

QVQLVESVGGIVQAGGSLRLSCAASGSIINWYAMGWYRQAPGKERELVAAISSSGSTNYADSVKGRFTISRDNAKNTVYLQMNSLKPEDTAVYYCNADEYYLNNYNYGYWGQGTQVTVSS
polyreactivity (PSR sort gate): low polyreactivity

QVQLVESGGGLVQAGGSLRLSCAASGLIFTSYAMGWYRQATGKERELVAAISGSAASTYYADSVKGRFTISRDNAKNTVYLQMNSLKPEDTAVYYCAADYQGYTPSDGRYYWGQGTQVTVSS
polyreactivity (PSR sort gate): low polyreactivity

QVQLVESGGGLVQAGGSLRLSCAASGNIFDHYAMGWYRQAPGKEREMVAAISSGGSTSYADSVKGRFTITRDNAKTTVYVQMNCLKPEDTAVYYCAAESFVQYKSPKWVHRYDSWGQGTQVTVSS
polyreactivity (PSR sort gate): low polyreactivity
